Data as given in PMC9482650, “Quantitative fragmentomics allow affinity mapping of interactomes” (Nature Communications, 2022).

Target: T1, TIAM2, Q8IVF5
T1 sequence (Q8IVF5 885-986, limits assumed, looked up): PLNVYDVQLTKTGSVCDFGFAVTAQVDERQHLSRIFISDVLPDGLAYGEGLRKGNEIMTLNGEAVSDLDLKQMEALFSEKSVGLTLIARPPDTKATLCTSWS
Experiment: holdup assay
Parameters: key: below the threshold = too weak to quantify, mostly under pKd 3.1 to 4
Details: plain residues with an end cap or a label only (N-terminal biotin on a linker: ado-ado)

Binder | pKd
IQISELETNV [SLC1A7, O00341] | below the threshold
KSRPENGTVC [TMEM178B, H3BS89] | below the threshold
EAVTVESTSL [SLC22A11, Q9NSA0] | below the threshold

Target: T2, LNX2_2, Q8N448
T2 sequence (Q8N448 334-432, limits assumed, looked up): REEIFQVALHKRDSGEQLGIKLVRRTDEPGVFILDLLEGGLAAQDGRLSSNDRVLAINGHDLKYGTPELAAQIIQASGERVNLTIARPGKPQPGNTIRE
Experiment: holdup assay
Parameters: key: below the threshold = too weak to quantify, mostly under pKd 3.1 to 4
Details: plain residues with an end cap or a label only (N-terminal biotin on a linker: ado-ado)

Binder | pKd
IQISELETNV [SLC1A7, O00341] | 4.02
KSRPENGTVC [TMEM178B, H3BS89] | 4.32
EAVTVESTSL [SLC22A11, Q9NSA0] | 3.67

Target: T3, SNTG1, Q9NSN8
T3 sequence (Q9NSN8 52-150, limits assumed, looked up): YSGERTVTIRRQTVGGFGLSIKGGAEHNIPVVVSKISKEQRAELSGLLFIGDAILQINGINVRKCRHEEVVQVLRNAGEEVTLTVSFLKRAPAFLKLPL
Experiment: holdup assay
Parameters: key: below the threshold = too weak to quantify, mostly under pKd 3.1 to 4
Details: plain residues with an end cap or a label only (N-terminal biotin on a linker: ado-ado)

Binder | pKd
IQISELETNV [SLC1A7, O00341] | 5.26
KSRPENGTVC [TMEM178B, H3BS89] | below the threshold
EAVTVESTSL [SLC22A11, Q9NSA0] | 3.5

Target: GRIP2_3, Q9C0E4
Sequence (Q9C0E4 238-339): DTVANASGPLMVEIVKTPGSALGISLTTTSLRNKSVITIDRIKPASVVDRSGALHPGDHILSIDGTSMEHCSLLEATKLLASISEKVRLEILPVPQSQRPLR
Experiment: holdup assay
Parameters: key: below the threshold = too weak to quantify, mostly under pKd 3.1 to 4
Details: plain residues with an end cap or a label only (N-terminal biotin on a linker: ado-ado)

Binder | pKd
IQISELETNV [SLC1A7, O00341] | below the threshold
KSRPENGTVC [TMEM178B, H3BS89] | below the threshold
EAVTVESTSL [SLC22A11, Q9NSA0] | below the threshold

Target: T4, MPP2, Q14168
T4 sequence (Q14168 180-250, limits assumed, looked up): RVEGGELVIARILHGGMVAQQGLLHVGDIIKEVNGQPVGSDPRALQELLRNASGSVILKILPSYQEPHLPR
Experiment: holdup assay
Parameters: key: below the threshold = too weak to quantify, mostly under pKd 3.1 to 4
Details: plain residues with an end cap or a label only (N-terminal biotin on a linker: ado-ado)

Binder | pKd
IQISELETNV [SLC1A7, O00341] | below the threshold
KSRPENGTVC [TMEM178B, H3BS89] | below the threshold
EAVTVESTSL [SLC22A11, Q9NSA0] | below the threshold

Target: T5, APBA2_1, Q99767
T5 sequence (Q99767 563-664, limits assumed, looked up): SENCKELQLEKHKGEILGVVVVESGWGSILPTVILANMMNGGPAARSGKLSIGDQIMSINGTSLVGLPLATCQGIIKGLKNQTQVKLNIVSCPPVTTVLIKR
Experiment: holdup assay
Parameters: key: below the threshold = too weak to quantify, mostly under pKd 3.1 to 4
Details: plain residues with an end cap or a label only (N-terminal biotin on a linker: ado-ado)

Binder | pKd
IQISELETNV [SLC1A7, O00341] | below the threshold
KSRPENGTVC [TMEM178B, H3BS89] | below the threshold
EAVTVESTSL [SLC22A11, Q9NSA0] | 3.54

Target: Inadl_3, Q8NI35
Sequence (Q8NI35 359-469): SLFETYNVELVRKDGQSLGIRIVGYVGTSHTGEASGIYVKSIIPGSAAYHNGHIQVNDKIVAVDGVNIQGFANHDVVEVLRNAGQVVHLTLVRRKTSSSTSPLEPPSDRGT
Experiment: holdup assay
Parameters: key: below the threshold = too weak to quantify, mostly under pKd 3.1 to 4
Details: plain residues with an end cap or a label only (N-terminal biotin on a linker: ado-ado)

Binder | pKd
IQISELETNV [SLC1A7, O00341] | 4
KSRPENGTVC [TMEM178B, H3BS89] | below the threshold
EAVTVESTSL [SLC22A11, Q9NSA0] | below the threshold

Target: SCRIB_1, Q14160
Sequence (Q14160 718-814): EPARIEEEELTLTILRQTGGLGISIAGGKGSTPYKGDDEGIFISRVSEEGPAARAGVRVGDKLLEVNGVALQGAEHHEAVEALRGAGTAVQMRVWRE
Experiment: holdup assay
Parameters: key: below the threshold = too weak to quantify, mostly under pKd 3.1 to 4
Details: plain residues with an end cap or a label only (N-terminal biotin on a linker: ado-ado)

Binder | pKd
IQISELETNV [SLC1A7, O00341] | 4.11
KSRPENGTVC [TMEM178B, H3BS89] | 3.78
EAVTVESTSL [SLC22A11, Q9NSA0] | 4.56

Target: T6, APBA2_2, Q99767
T6 sequence (Q99767 654-744, limits assumed, looked up): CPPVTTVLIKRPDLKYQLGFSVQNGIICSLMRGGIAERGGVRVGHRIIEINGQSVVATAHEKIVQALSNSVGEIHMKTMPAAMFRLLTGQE
Experiment: holdup assay
Parameters: key: below the threshold = too weak to quantify, mostly under pKd 3.1 to 4
Details: plain residues with an end cap or a label only (N-terminal biotin on a linker: ado-ado)

Binder | pKd
IQISELETNV [SLC1A7, O00341] | below the threshold
KSRPENGTVC [TMEM178B, H3BS89] | below the threshold
EAVTVESTSL [SLC22A11, Q9NSA0] | below the threshold

Target: T7, MPDZ_12, O75970
T7 sequence (O75970 1857-1958, limits assumed, looked up): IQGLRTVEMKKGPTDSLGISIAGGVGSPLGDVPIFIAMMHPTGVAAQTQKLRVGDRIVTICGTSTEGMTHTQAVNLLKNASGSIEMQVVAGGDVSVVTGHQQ
Experiment: holdup assay
Parameters: key: below the threshold = too weak to quantify, mostly under pKd 3.1 to 4
Details: plain residues with an end cap or a label only (N-terminal biotin on a linker: ado-ado)

Binder | pKd
IQISELETNV [SLC1A7, O00341] | below the threshold
KSRPENGTVC [TMEM178B, H3BS89] | below the threshold
EAVTVESTSL [SLC22A11, Q9NSA0] | below the threshold

Target: T8, HTRA4, P83105
T8 sequence (P83105 378-476, limits assumed, looked up): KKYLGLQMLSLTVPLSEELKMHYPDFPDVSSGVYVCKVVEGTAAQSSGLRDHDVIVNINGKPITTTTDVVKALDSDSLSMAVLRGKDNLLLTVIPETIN
Experiment: holdup assay
Parameters: key: below the threshold = too weak to quantify, mostly under pKd 3.1 to 4
Details: plain residues with an end cap or a label only (N-terminal biotin on a linker: ado-ado)

Binder | pKd
IQISELETNV [SLC1A7, O00341] | 3.9
KSRPENGTVC [TMEM178B, H3BS89] | below the threshold
EAVTVESTSL [SLC22A11, Q9NSA0] | below the threshold

Target: T9, FRMPD1, Q5SYB0
T9 sequence (Q5SYB0 52-145, limits assumed, looked up): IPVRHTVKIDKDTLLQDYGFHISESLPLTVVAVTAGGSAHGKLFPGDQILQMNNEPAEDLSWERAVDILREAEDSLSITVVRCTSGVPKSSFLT
Experiment: holdup assay
Parameters: key: below the threshold = too weak to quantify, mostly under pKd 3.1 to 4
Details: plain residues with an end cap or a label only (N-terminal biotin on a linker: ado-ado)

Binder | pKd
IQISELETNV [SLC1A7, O00341] | below the threshold
KSRPENGTVC [TMEM178B, H3BS89] | below the threshold
EAVTVESTSL [SLC22A11, Q9NSA0] | below the threshold

Target: T10, CARD11, Q9BXL7
T10 sequence (Q9BXL7 662-765, limits assumed, looked up): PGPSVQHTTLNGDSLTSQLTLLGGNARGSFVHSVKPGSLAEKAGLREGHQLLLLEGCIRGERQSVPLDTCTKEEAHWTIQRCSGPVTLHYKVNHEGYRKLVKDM
Experiment: holdup assay
Parameters: key: below the threshold = too weak to quantify, mostly under pKd 3.1 to 4
Details: plain residues with an end cap or a label only (N-terminal biotin on a linker: ado-ado)

Binder | pKd
IQISELETNV [SLC1A7, O00341] | below the threshold
KSRPENGTVC [TMEM178B, H3BS89] | below the threshold
EAVTVESTSL [SLC22A11, Q9NSA0] | below the threshold

Target: TJP1_2, Q07157
Sequence (Q07157 181-274): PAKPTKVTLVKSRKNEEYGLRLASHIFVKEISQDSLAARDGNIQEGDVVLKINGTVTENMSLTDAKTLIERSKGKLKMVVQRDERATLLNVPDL
Experiment: holdup assay
Parameters: key: below the threshold = too weak to quantify, mostly under pKd 3.1 to 4
Details: plain residues with an end cap or a label only (N-terminal biotin on a linker: ado-ado)

Binder | pKd
IQISELETNV [SLC1A7, O00341] | below the threshold
KSRPENGTVC [TMEM178B, H3BS89] | below the threshold
EAVTVESTSL [SLC22A11, Q9NSA0] | below the threshold

Target: T11, GRIP1_7, Q9Y3R0
T11 sequence (Q9Y3R0 999-1096, limits assumed, looked up): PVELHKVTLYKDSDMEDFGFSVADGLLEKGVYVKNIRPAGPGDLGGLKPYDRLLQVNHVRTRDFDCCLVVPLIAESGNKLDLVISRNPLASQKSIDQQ
Experiment: holdup assay
Parameters: key: below the threshold = too weak to quantify, mostly under pKd 3.1 to 4
Details: plain residues with an end cap or a label only (N-terminal biotin on a linker: ado-ado)

Binder | pKd
IQISELETNV [SLC1A7, O00341] | below the threshold
KSRPENGTVC [TMEM178B, H3BS89] | below the threshold
EAVTVESTSL [SLC22A11, Q9NSA0] | below the threshold

Target: LIMK2, P53671
Sequence (P53671 143-248): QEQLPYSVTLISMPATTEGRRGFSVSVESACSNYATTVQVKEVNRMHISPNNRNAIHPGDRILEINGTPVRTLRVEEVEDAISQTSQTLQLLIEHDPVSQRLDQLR
Experiment: holdup assay
Parameters: key: below the threshold = too weak to quantify, mostly under pKd 3.1 to 4
Details: plain residues with an end cap or a label only (N-terminal biotin on a linker: ado-ado)

Binder | pKd
IQISELETNV [SLC1A7, O00341] | below the threshold
KSRPENGTVC [TMEM178B, H3BS89] | below the threshold
EAVTVESTSL [SLC22A11, Q9NSA0] | below the threshold

Target: MAST2, Q6P0Q8
Sequence (Q6P0Q8 1099-1202): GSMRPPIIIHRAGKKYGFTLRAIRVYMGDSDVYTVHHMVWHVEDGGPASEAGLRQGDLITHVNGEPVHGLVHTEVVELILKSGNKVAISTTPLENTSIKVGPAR
Experiment: holdup assay
Parameters: key: below the threshold = too weak to quantify, mostly under pKd 3.1 to 4
Details: plain residues with an end cap or a label only (N-terminal biotin on a linker: ado-ado)

Binder | pKd
IQISELETNV [SLC1A7, O00341] | 5.61
KSRPENGTVC [TMEM178B, H3BS89] | 4.21
EAVTVESTSL [SLC22A11, Q9NSA0] | 5.9

Target: ARHGEF12, Q9NZN5-2
Sequence (Q9NZN5 other isoform, or with tags, fused parts or gaps): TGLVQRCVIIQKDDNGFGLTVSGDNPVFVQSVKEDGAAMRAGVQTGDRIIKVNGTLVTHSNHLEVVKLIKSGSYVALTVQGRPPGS
Experiment: holdup assay
Parameters: key: below the threshold = too weak to quantify, mostly under pKd 3.1 to 4
Details: plain residues with an end cap or a label only (N-terminal biotin on a linker: ado-ado)

Binder | pKd
IQISELETNV [SLC1A7, O00341] | 3.71
KSRPENGTVC [TMEM178B, H3BS89] | 3.65
EAVTVESTSL [SLC22A11, Q9NSA0] | 5.17

Target: T12, MPP7, Q5T2T1
T12 sequence (Q5T2T1 134-230, limits assumed, looked up): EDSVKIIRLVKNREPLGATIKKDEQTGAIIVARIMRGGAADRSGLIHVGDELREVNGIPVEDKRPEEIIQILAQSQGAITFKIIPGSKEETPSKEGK
Experiment: holdup assay
Parameters: key: below the threshold = too weak to quantify, mostly under pKd 3.1 to 4
Details: plain residues with an end cap or a label only (N-terminal biotin on a linker: ado-ado)

Binder | pKd
IQISELETNV [SLC1A7, O00341] | below the threshold
KSRPENGTVC [TMEM178B, H3BS89] | below the threshold
EAVTVESTSL [SLC22A11, Q9NSA0] | below the threshold

Target: T13, DVL3, Q92997
T13 sequence (Q92997 244-331, limits assumed, looked up): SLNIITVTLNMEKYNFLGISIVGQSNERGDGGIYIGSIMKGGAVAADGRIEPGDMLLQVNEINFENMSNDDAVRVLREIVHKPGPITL
Experiment: holdup assay
Parameters: key: below the threshold = too weak to quantify, mostly under pKd 3.1 to 4
Details: plain residues with an end cap or a label only (N-terminal biotin on a linker: ado-ado)

Binder | pKd
IQISELETNV [SLC1A7, O00341] | below the threshold
KSRPENGTVC [TMEM178B, H3BS89] | below the threshold
EAVTVESTSL [SLC22A11, Q9NSA0] | below the threshold

Target: AHNAK1, Q09666
Sequence (Q09666 4-100): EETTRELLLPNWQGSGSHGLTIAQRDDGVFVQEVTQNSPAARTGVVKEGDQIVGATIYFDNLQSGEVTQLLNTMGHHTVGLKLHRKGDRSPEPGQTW
Experiment: holdup assay
Parameters: key: below the threshold = too weak to quantify, mostly under pKd 3.1 to 4
Details: plain residues with an end cap or a label only (N-terminal biotin on a linker: ado-ado)

Binder | pKd
IQISELETNV [SLC1A7, O00341] | below the threshold
KSRPENGTVC [TMEM178B, H3BS89] | below the threshold
EAVTVESTSL [SLC22A11, Q9NSA0] | below the threshold

Target: T14, NHERF3_3, Q5T2W1
T14 sequence (Q5T2W1 238-333, limits assumed, looked up): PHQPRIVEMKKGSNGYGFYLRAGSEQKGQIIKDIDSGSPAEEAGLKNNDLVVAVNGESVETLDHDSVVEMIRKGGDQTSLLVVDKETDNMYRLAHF
Experiment: holdup assay
Parameters: key: below the threshold = too weak to quantify, mostly under pKd 3.1 to 4
Details: plain residues with an end cap or a label only (N-terminal biotin on a linker: ado-ado)

Binder | pKd
IQISELETNV [SLC1A7, O00341] | below the threshold
KSRPENGTVC [TMEM178B, H3BS89] | below the threshold
EAVTVESTSL [SLC22A11, Q9NSA0] | below the threshold

Target: T15, PDZD7_3, Q9H5P4
T15 sequence (Q9H5P4 857-944, limits assumed, looked up): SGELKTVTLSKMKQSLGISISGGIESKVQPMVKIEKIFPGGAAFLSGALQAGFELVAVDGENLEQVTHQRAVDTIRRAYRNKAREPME
Experiment: holdup assay
Parameters: key: below the threshold = too weak to quantify, mostly under pKd 3.1 to 4
Details: plain residues with an end cap or a label only (N-terminal biotin on a linker: ado-ado)

Binder | pKd
IQISELETNV [SLC1A7, O00341] | 4.85
KSRPENGTVC [TMEM178B, H3BS89] | below the threshold
EAVTVESTSL [SLC22A11, Q9NSA0] | 4.8
